Test results: patent US20240018237A1 (SICHUAN KELUN BIOTECH BIOPHARMACEUTICAL, published 2024)
Changes are numbered by the printed parent chain.

B1: 19F6-Hu35V5 (antibody, human IgG1, kappa, V domains shown)
VH: QVQLQESGPGLVKPSQTLSLTCTVSGYSITSDYAWNWIRQFPGKGLEWIGYISYSGSIRYNPSLKSRVTISRDTSKNQFSLKLSSVTAADTAVYYCARGEITYYFDYWGQGTLVTVSS
VL: ETTLTQSPAFMSATPGDKVTISCKASTDIDDDMNWYQQKPGKPPKLIISEGNTLRPGIPPRFSSSGYGTDFTFTINNIKSEDAATYYCLQSNDLPLTFGQGTKLEIKR
notes: humanized, human IgG1 / kappa
B2: 19F6-Hu35V4 (antibody, human IgG1, kappa, V domains shown)
VH: B1 VH
VL: B1 VL with D28S, D31N, N77K, K79E
notes: humanized, human IgG1 / kappa
B3: 19F6-Hu35V7 (antibody, human IgG1, kappa, V domains shown)
VH: B1 VH
VL: B1 VL with D28S, K79Q
notes: humanized, human IgG1 / kappa
B4: 19F6-Hu35V8 (antibody, human IgG1, kappa, V domains shown)
VH: B1 VH
VL: B1 VL with D31N, K79Q
notes: humanized, human IgG1 / kappa
B5: 19F6-Hu35V2 (antibody, human IgG1, kappa, V domains shown)
VH: B1 VH
VL: B1 VL with D31S, K42E, N77K
notes: humanized, human IgG1 / kappa
B6: 19F6-Hu35V6 (antibody, human IgG1, kappa, V domains shown)
VH: B1 VH
VL: B1 VL with D31N
notes: humanized, human IgG1 / kappa
B7: 19F6-Hu25 (antibody, human IgG1, kappa, V domains shown)
VH: B1 VH with Q16E, F41P, I49M, S66D, V68I
VL: B1 VL with K42E, K79E, T85D
notes: humanized, human IgG1 / kappa
B8: 19F6-Hu35V3 (antibody, human IgG1, kappa, V domains shown)
VH: B1 VH
VL: B1 VL with D28S, N77K, K79E
notes: humanized, human IgG1 / kappa
B9: 19F6-Hu35 (antibody, human IgG1, kappa, V domains shown)
VH: B1 VH
VL: B1 VL with K42E, K79E, T85D
notes: humanized, human IgG1 / kappa
B10: 19F6-Hu15 (antibody, human IgG1, kappa, V domains shown)
VH: B1 VH with Q16E, S25T, F41P, I49M, N61K, S66D, V68I
VL: B1 VL with K42E, K79E, T85D
notes: humanized, human IgG1 / kappa
B11: 3D8-HuC84 (antibody, human IgG1, kappa, V domains shown)
VH: EVQLVESGGGLVQPGGSLRLSCAASGFTFSSYAMSWVRQAPEKRLEWVSSISSGGSTYYPDSVKGRFTISRDNSKNTLYLQMNSLRAEDTAVYYCARVNYYGYGDYAMDYWGQGTLVTVSS
VL: DIQMTQSPSSLSASVGDRVTITCQASQDISNYLTWFQQKPGKSPKTLIHRANRLVTGVPSRFSGSGSGTDFTFTISSLQPEDIATYYCLQYDEFPYTFGGGTKVEIKR
notes: humanized, human IgG1 / kappa
B12: 38F8-Hu27 (antibody, human IgG1, kappa, V domains shown)
VH: EVQLVESGGGLVQPGGSLRLSCAASGFTFSNYAMSWVRQAPGKGLEWVASISSGGPTYYPDSVKGRFTVSRDNSKNTLYLQMNSLRAEDTAVYYCARGYRYDVNWYFDVWGAGTMVTVSS
VL: B11 VL with F71Y, T85I
notes: humanized, human IgG1 / kappa
B13: 38F8-Hu66 (antibody, human IgG1, kappa, V domains shown)
VH: B12 VH with E1Q, Q13K, G42E, G44R, V69I, S74A, T77S
VL: B11 VL with S30N, N31S
notes: humanized, human IgG1 / kappa
B14: 38F8-Hu34 (antibody, human IgG1, kappa, V domains shown)
VH: B12 VH with E1Q, Q13K, P60A, V69I, S74A, T77S
VL: B11 VL
notes: humanized, human IgG1 / kappa
B15: 38F8-Hu37 (antibody, human IgG1, kappa, V domains shown)
VH: B12 VH with E1Q, Q13K, P60A, V69I, S74A, T77S
VL: B11 VL with F71Y, T85I
notes: humanized, human IgG1 / kappa
B16: 38F8-Hu28 (antibody, human IgG1, kappa, V domains shown)
VH: B12 VH
VL: B11 VL with S30N, N31S, F71Y, T85I
notes: humanized, human IgG1 / kappa
B17: 38F8-Hu18 (antibody, human IgG1, kappa, V domains shown)
VH: B12 VH with A23T, P60A, K75R, A112R, M115L
VL: B11 VL with S30N, N31S, F71Y, T85I
notes: humanized, human IgG1 / kappa
B18: 38F8-Hu14 (antibody, human IgG1, kappa, V domains shown)
VH: B12 VH with A23T, P60A, K75R, A112R, M115L
VL: B11 VL
notes: humanized, human IgG1 / kappa
B19: 38F8-Hu64 (antibody, human IgG1, kappa, V domains shown)
VH: B12 VH with E1Q, Q13K, G42E, G44R, V69I, S74A, T77S
VL: B11 VL
notes: humanized, human IgG1 / kappa
B20: 38F8-Hu56 (antibody, human IgG1, kappa, V domains shown)
VH: B12 VH with G42E, G44R
VL: B11 VL with S30N, N31S
notes: humanized, human IgG1 / kappa
B21: 38F8-Hu16 (antibody, human IgG1, kappa, V domains shown)
VH: B12 VH with A23T, P60A, K75R, A112R, M115L
VL: B11 VL with S30N, N31S
notes: humanized, human IgG1 / kappa
B22: 38F8-Hu24 (antibody, human IgG1, kappa, V domains shown)
VH: B12 VH
VL: B11 VL
notes: humanized, human IgG1 / kappa
B23: 38F8-Hu67 (antibody, human IgG1, kappa, V domains shown)
VH: B12 VH with E1Q, Q13K, G42E, G44R, V69I, S74A, T77S
VL: B11 VL with F71Y, T85I
notes: humanized, human IgG1 / kappa
B24: 38F8-Hu58 (antibody, human IgG1, kappa, V domains shown)
VH: B12 VH with G42E, G44R
VL: B11 VL with S30N, N31S, F71Y, T85I
notes: humanized, human IgG1 / kappa
B25: 38F8-Hu54 (antibody, human IgG1, kappa, V domains shown)
VH: B12 VH with G42E, G44R
VL: B11 VL
notes: humanized, human IgG1 / kappa
B26: 38F8-Hu68 (antibody, human IgG1, kappa, V domains shown)
VH: B12 VH with E1Q, Q13K, G42E, G44R, V69I, S74A, T77S
VL: B11 VL with S30N, N31S, F71Y, T85I
notes: humanized, human IgG1 / kappa
B27: 38F8-Hu36 (antibody, human IgG1, kappa, V domains shown)
VH: B12 VH with E1Q, Q13K, P60A, V69I, S74A, T77S
VL: B11 VL with S30N, N31S
notes: humanized, human IgG1 / kappa
B28: 38F8-Hu17 (antibody, human IgG1, kappa, V domains shown)
VH: B12 VH with A23T, P60A, K75R, A112R, M115L
VL: B11 VL with F71Y, T85I
notes: humanized, human IgG1 / kappa
B29: 38F8-Hu26 (antibody, human IgG1, kappa, V domains shown)
VH: B12 VH
VL: B11 VL with S30N, N31S
notes: humanized, human IgG1 / kappa
B30: 3D8-HuC94 (antibody, human IgG1, kappa, V domains shown)
VH: B11 VH with S53N
VL: B11 VL
notes: humanized, human IgG1 / kappa
B31: 38F8-Hu38 (antibody, human IgG1, kappa, V domains shown)
VH: B12 VH with E1Q, Q13K, P60A, V69I, S74A, T77S
VL: B11 VL with S30N, N31S, F71Y, T85I
notes: humanized, human IgG1 / kappa

What was measured:
[1] = target: T1, human ROR1 (full-length, on the cell surface) (human, UniProt Q01973 30-937); experiment: flow cytometry, A549 cells
T1 construct: whole, on cells; the tumour cell lines carry their own ROR1; also called Ba/F3-ROR1 cells; Jeko-1
T1 sequence (Q01973 30-937): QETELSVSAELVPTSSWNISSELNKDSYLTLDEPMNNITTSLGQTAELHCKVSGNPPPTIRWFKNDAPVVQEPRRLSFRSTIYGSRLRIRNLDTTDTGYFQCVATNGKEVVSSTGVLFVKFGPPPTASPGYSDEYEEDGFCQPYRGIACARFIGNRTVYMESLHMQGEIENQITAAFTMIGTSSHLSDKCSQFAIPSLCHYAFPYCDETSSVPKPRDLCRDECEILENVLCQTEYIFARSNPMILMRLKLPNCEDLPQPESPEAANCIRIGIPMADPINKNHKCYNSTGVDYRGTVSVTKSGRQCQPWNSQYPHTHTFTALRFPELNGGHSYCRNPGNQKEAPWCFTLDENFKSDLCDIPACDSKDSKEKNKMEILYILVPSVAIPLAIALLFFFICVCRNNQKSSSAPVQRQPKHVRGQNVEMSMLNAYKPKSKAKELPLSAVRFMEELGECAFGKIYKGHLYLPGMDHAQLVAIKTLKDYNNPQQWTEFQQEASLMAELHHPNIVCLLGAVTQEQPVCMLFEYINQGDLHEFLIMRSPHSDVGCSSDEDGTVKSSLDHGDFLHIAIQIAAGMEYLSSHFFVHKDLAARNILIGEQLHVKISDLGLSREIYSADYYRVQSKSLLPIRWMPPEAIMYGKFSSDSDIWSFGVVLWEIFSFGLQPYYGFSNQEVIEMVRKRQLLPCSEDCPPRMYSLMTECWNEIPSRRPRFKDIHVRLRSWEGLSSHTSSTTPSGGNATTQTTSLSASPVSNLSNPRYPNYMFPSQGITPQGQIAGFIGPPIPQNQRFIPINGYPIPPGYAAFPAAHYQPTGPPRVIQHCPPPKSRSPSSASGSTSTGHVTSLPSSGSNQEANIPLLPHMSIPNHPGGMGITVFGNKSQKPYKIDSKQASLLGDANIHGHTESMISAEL
Procedure: (§1) The affinities of the anti-human ROR1 humanized antibodies to Ba/F3-ROR1, Jeko-1, HT-29 and A549 cells were detected by flow cytometry. The specific experimental steps were as follows: the BaBF3-ROR1, Jeko-1, HT-29 and A549 cells were incubated with the purified humanized antibodies of different concentration gradients on ice for 30 minutes, and the anti-ROR1 antibody UC961 with human IgG1 and the anti-TNP antibody were used as positive and negative controls, respectively.

[2] = target: T1, human ROR1 (full-length, on the cell …); experiment: flow cytometry, HT-29 cells
Procedure: as §1

[3] = target: T1, human ROR1 (full-length, on the cell …); experiment: flow cytometry, Jeko-1 cells
Procedure: as §1

[4] = target: T1, human ROR1 (full-length, on the cell …); experiment: flow cytometry, Ba/F3-ROR1 cells
[5] = target: T1, human ROR1 (full-length, on the cell …); experiment: flow cytometry, Ba/F3-ROR1 cells; remark: listed apart in the source
Procedure: as §1

Binder | EC50 [1] [pM] | EC50 [2] [pM] | EC50 [3] [pM] | EC50 [4] [pM] | EC50 [5] [pM]
B1 | 160 | 170 | 130 | 170 | –
B2 | 150 | 300 | 200 | 280 | –
B3 | 100 | 180 | 220 | 190 | –
B4 | 90 | 120 | 180 | 180 | –
B5 | 100 | 180 | 190 | 190 | –
B6 | 80 | 160 | 200 | 170 | –
B7 | 130 | 80 | 190 | 610 | –
B8 | 100 | 170 | 180 | 180 | –
B9 | 80 | 90 | 150 | 380 | –
B10 | 90 | 70 | 210 | 330 | –
B11 | 850 | 1300 | 60 | – | 190
B12 | 270 | 250 | 70 | – | 990
B13 | 350 | 440 | 110 | – | 930
B14 | 190 | 290 | 60 | – | 1230
B15 | 310 | 440 | 100 | – | 2350
B16 | 340 | 240 | 120 | – | 1320

Binder | EC50 [1] [pM] | EC50 [2] [pM] | EC50 [3] [pM] | EC50 [4] [pM] | EC50 [5] [pM]
B17 | 280 | 350 | 110 | – | 820
B18 | 340 | 240 | 80 | – | 840
B19 | 310 | 420 | 90 | – | 1200
B20 | 320 | 420 | 100 | – | 1090
B21 | 220 | 310 | 80 | – | 940
B22 | 210 | 240 | 50 | – | 980
B23 | 400 | 610 | 100 | – | 840
B24 | 320 | 430 | 90 | – | 1450
B25 | 460 | 490 | 90 | – | 1570
B26 | 540 | 550 | 110 | – | 2190
B27 | 300 | 370 | 90 | – | 1160
B28 | 210 | 290 | 70 | – | 1480
B29 | 290 | 330 | 90 | – | 770
B30 | 1380 | 740 | 60 | – | 220
B31 | 380 | 590 | 130 | – | 1430
